Literature values as cited in patent publication US5874218.

Tested on: T1, VEGF165 (Homo sapiens), P15692-4
T1 sequence: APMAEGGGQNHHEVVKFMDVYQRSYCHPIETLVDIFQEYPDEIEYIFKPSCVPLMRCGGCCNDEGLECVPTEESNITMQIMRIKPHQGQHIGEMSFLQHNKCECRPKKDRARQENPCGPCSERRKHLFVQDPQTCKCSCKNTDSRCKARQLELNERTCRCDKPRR
Details: modified to be nuclease resistant (Green et al. 1995); CITED; value stated for the ligand with reference to Green et al. 1995

NTTTTACCCUGAUGGUAGACGCCGGGGUGTTTTT [NX-244]
Kd: 0.14 nM
